Series [1] has as its target T1, YTHDC1 YTH domain (human, UniProt Q96MU7 345-509). Briefly: ITC.
For series [2], the target named is T1, YTHDC1 YTH domain. Briefly: X-ray crystallography.

The source of these data is paper doi:10.1101/787937.

B1: GG(m6A)CU (ssRNA)
RNA: GGACU
modifications: m6A at position 3
Turning to B1, in the series with YTHDC1 YTH domain [1], binding was characterised by a dissociation constant (Kd) of 500 nM.

B2: (m6A)CU (ssRNA)
RNA: ACU
modifications: m6A at position 1
As to B2, in the series with YTHDC1 YTH domain [2], the binding result is on record as “binds”.

B3: G(m6A)C (ssRNA)
RNA: GAC
modifications: m6A at position 2
B3: the binding result in the series with YTHDC1 YTH domain [2] is “binds”.

B4: G(m6A)CU (ssRNA)
RNA: GACU
modifications: m6A at position 2
Turning to B4, in the series with YTHDC1 YTH domain [2], the binding result is listed as “binds”.

B5: GG(m6A)C (ssRNA)
RNA: GGAC
modifications: m6A at position 3
In the case of B5, the binding result with YTHDC1 YTH domain [2] was “binds”.
